{"source": "patent US20250270328A1", "about": "(BRIGHAM AND WOMEN S HOSPITAL, published 2025)", "binders": {"B1": {"name": "10A3D6 (murine monoclonal antibody) (antibody, mouse IgG1)", "heavy": "EVQLQQSGPELVKPGASMKISCKASGYSFTGYTMNWVKQSHGKNLEWIGLINPNTGGTYYNQKFKDKATLTVDKSSSTAYMELLSLTSEDSAVYYCARLGDNYRGYFDCWGQGTTLTVSSAKTTPPSVYPLAPGSAAQTNSMVTLGCLVKGYFPEPVTVTWNSGSLSSGVHTFPAVLQSDLYTLSSSVTVPSSPRPSETVTCNVAHPASSTKVDKKIVPRDCGCKPCICTVPEVSSVFIFPPKPKDVLTITLTPKVTCVVVDISKDDPEVQFSWFVDDVEVHTAQTQPREEQFNSTFRSVSELPIMHQDWLNGKEFKCRVNSAAFPAPIEKTISKTKGRPKAPQVYTIPPPKEQMAKDKVSLTCMITDFFPEDITVEWQWNGQPAENYKNTQPIMNTNGSYFVYSKLNVQKSNWEAGNTFTCSVLHEGLHNHHTEKSLSHSPGK", "light": "DIVMTQSHKFMSTSVGDRVNITCKASQDVGTAVVWYQQTPGQSPKVLIDWASIRHTGVPDRFTGSGSGTDFTLTISSVQSEDLADYFCQQYSTYLYTFGGGTKLEIKRADAAPTVSIFPPSSEQLTSGGASVVCFLNNFYPKDINVKWKIDGSERQNGVLNSWTDQDSKDSTYSMSSTLTLTKDEYERHNSYTCEATHKTSTSPIVKSFNRNEC", "notes": "copies: 2 + 2"}, "B2": {"name": "10A3D6C109S-chimeric (antibody, human IgG1, V domains shown)", "VH": "EVQLQQSGPELVKPGASMKISCKASGYSFTGYTMNWVKQSHGKNLEWIGLINPNTGGTYYNQKFKDKATLTVDKSSSTAYMELLSLTSEDSAVYYCARLGDNYRGYFDSWGQGTTLTVSS", "VL": "DIVMTQSHKFMSTSVGDRVNITCKASQDVGTAVVWYQQTPGQSPKVLIDWASIRHTGVPDRFTGSGSGTDFTLTISSVQSEDLADYFCQQYSTYLYTFGGGTKLEIK", "notes": "Chimeric mutated variant; the name hIgG1k indicates human IgG1 kappa constant regions; also called 10A3D6C109ShIgG1k"}, "B3": {"name": "10A3D6C109V-chimeric (antibody, human IgG1, V domains shown)", "VH": "EVQLQQSGPELVKPGASMKISCKASGYSFTGYTMNWVKQSHGKNLEWIGLINPNTGGTYYNQKFKDKATLTVDKSSSTAYMELLSLTSEDSAVYYCARLGDNYRGYFDVWGQGTTLTVSS", "VL": "DIVMTQSHKFMSTSVGDRVNITCKASQDVGTAVVWYQQTPGQSPKVLIDWASIRHTGVPDRFTGSGSGTDFTLTISSVQSEDLADYFCQQYSTYLYTFGGGTKLEIK", "notes": "Chimeric mutated variant; the name hIgG1k indicates human IgG1 kappa constant regions; also called 10A3D6C109VhIgG1k"}, "B4": {"name": "10A3D6C109F-chimeric (antibody, human IgG1, V domains shown)", "VH": "EVQLQQSGPELVKPGASMKISCKASGYSFTGYTMNWVKQSHGKNLEWIGLINPNTGGTYYNQKFKDKATLTVDKSSSTAYMELLSLTSEDSAVYYCARLGDNYRGYFDFWGQGTTLTVSS", "VL": "DIVMTQSHKFMSTSVGDRVNITCKASQDVGTAVVWYQQTPGQSPKVLIDWASIRHTGVPDRFTGSGSGTDFTLTISSVQSEDLADYFCQQYSTYLYTFGGGTKLEIK", "notes": "Chimeric mutated variant; the name hIgG1k indicates human IgG1 kappa constant regions; also called 10A3D6C109FhIgG1k"}, "B5": {"name": "10A3D6C109Chum2.2 (antibody, V domains shown)", "VH": "QVQLVQSGAEVKKPGASVKVSCKASGYSFTGYTMNWVRQAPGQNLEWIGLINPNTGGTYYNQKFKDRVTLTVDTSISTAYMELSRLRSDDTAVYYCARLGDNYRGYFDCWGQGTTVTVSS", "VL": "DIQLTQSPSFLSASVGDRVTITCKASQDVGTAVVWYQQKPGKAPKLLIDWASIRHTGVPSRFSGSGSGTEFTLTISSLQPEDFADYFCQQYSTYLYTFGGGTKLEIK", "notes": "Humanized variant of 10A3D6 made by CDR grafting"}, "B6": {"name": "10A3D6C109Chum1.1 (antibody, V domains shown)", "VH": "QVQLVQSGAEVKKPGASVKVSCKASGYSFTGYTMNWVRQAPGQGLEWMGLINPNTGGTYYNQKFKDRVTMTRDTSISTAYMELSRLRSDDTAVYYCARLGDNYRGYFDCWGQGTTVTVSS", "VL": "DIQLTQSPSFLSASVGDRVTITCKASQDVGTAVVWYQQKPGKAPKLLIYWASIRHTGVPSRFSGSGSGTEFTLTISSLQPEDFATYYCQQYSTYLYTFGGGTKLEIK", "notes": "as for B5"}}, "data": [{"molecular_target": "T1, human KLRB1 protein extracellular domain (ECD) (human, UniProt Q12918 67-225)", "T1 construct": "range 67-225; The ELISA and SPR text says only 'human KLRB1 ECD'; also called human KLRB1 ECD; CD161", "T1 sequence (looked up)": "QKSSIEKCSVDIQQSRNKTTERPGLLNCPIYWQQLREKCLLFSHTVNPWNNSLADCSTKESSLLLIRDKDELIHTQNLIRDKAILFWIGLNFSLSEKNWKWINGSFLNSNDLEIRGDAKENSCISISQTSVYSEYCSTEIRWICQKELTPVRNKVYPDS", "test": "SPR, human KLRB1 ECD; format not stated", "method": "The chimeric antibody 10A3D6-hIgGlk (a mouse/human chimeric antibody with 10A3D6 variable regions and human IgG1-kappa constant regions), chimeric mutated variants (10A3D6C109S, 10A3D6C109F, and 10A3D6C109V), and humanized variants of 10A3D6 created by CDR grafting (Almagro et al. 2008) were assayed for binding against human KLRB1 extracellular domain (ECD) via surface plasma resonance (SPR).", "units": {"Kd": "nM", "koff": "s⁻¹", "kon": "M⁻¹ s⁻¹"}, "values": [{"binder": "B1", "Kd": 0.259, "koff": 0.000123, "kon": 475000}, {"binder": "B2", "Kd": 0.0511, "koff": 0.000303, "kon": "5.93e+06"}, {"binder": "B3", "Kd": 0.0436, "koff": 0.000293, "kon": "6.72e+06"}, {"binder": "B4", "Kd": 0.0627, "koff": 0.000336, "kon": "5.36e+06"}, {"binder": "B5", "Kd": 0.106, "koff": "9.54e-05", "kon": 903000}, {"binder": "B6", "Kd": 9.42, "koff": 0.00296, "kon": 314000}]}]}
